Values joined by “and” are separate entries in the source; they are usually repeats but may differ in a detail not shown here. Equal values may be shown once.
Columns and labels:
MCC = test: Clinical trial: avelumab plus MCPyV-specific T cells and HLA-upregulation (NCT02584829); conditions: avelumab in addition to MCPyV-specific T cells and HLA-upregulation
[1] = molecular target: T1, Merkel cell polyomavirus T antigen (common to large and small T antigen) peptide on HLA-A*02:01 (human); test: binding, other
T1 peptide: KLLEIAPNC

[2] = molecular target: T1, Merkel cell polyomavirus T antigen …; test: multimer staining
[3] = molecular target: T2, Merkel cell polyomavirus T antigen (common to large and small T antigen) peptide on HLA-A*02:01 (human); test: multimer staining
T2 peptide: KLLEIAPNC

[4] = molecular target: T3, Merkel cell polyomavirus T antigen KLL epitope homolog (C-terminal cysteine replaced by alanine) peptide on … (human); test: IFN-g ELISA; T2 + peptide titration; T cell clone or line
T3 peptide: KLLEIAPNA

[5] = molecular target: T1, Merkel cell polyomavirus T antigen …; test: IFN-g ELISA; COS-7 given HLA-A*02:01 and tLTAg plasmids (antigen processed); T cell clone or line
Protocol: IFN-γ in cell culture supernatants was assayed by ELISA according to manufacturer's recommendations (Human IFN gamma ELISA Ready-SET-Go Kit, affymetrix). […] Supernatants were assayed by ELISA as described above. […] After incubating for 24 hours, wells were transfected using FuGENE HD (Promega) at a 6:1 ratio of transfection reagent to DNA with 25 ng HLA-A*02:01 and limiting dilution of pDEST103-GFP-tLTAg (25-0.08 ng) plus irrelevant DNA (pcDNA-6/myc-His C, Gateway) to a total of 25 ng. 48 hours after transfection, 10^4 viable KLL-specific T cells in TCM were added to target wells in duplicate. […] Transfected COS-7 cells were harvested at 48 and 72 hours post-transfection to quantitate transfection efficiency by flow cytometry.

Molecule | binding result [2] | binding result [3] | EC50 of peptide [4] | further results
avelumab |  |  |  | objective response (MCC; 5 MCC patients): 80%; duration of complete responses (MCC): > 1 year; toxicities with the addition of avelumab (MCC): no increased toxicities; complete responses (CRs) (MCC; of 5 MCC patients): 3 patients
X389-6 (TCR, V domains shown) Valpha: ILNVEQSPQSLHVQEGDSTNFTCSFPSSNFYALHWYRWETAKSPEALFVMTLNGDEKKKGRISATLNTKEGYSYLYIKGSQPEDSATYLCAWNTDKLIFGTGTRLQVFP Vbeta: DAGVIQSPRHEVTEMGQEVTLRCKPISGHNSLFWYRQTMMRGLELLIYFNNNVPIDDSGMPEDRFSAKMPNASFSTLKIQPSEPRDSAVYFCASSLAGDRSFGPGTRLTVT |  |  |  | binding result [1]: recognises
w876 clonotype 23 (TCR) alpha TRAV12-3*01 TRAJ57*01 CDR3: CAMSVAQGGSEKLVF beta TRBV6-6*01 TRBJ2-7*01 CDR3: CASSYQIGLSYEQYF | recognises |  |  | 
w876 clonotype 5 (TCR) alpha TRAV38-1*01 TRAJ23*01 CDR3: CAYNQGGKLIF beta TRBV10-2*01 TRBJ2-2*01 CDR3: CASSVLNTGELFF | recognises | recognises | 0.11 ng/mL | 
MCC1 (TCR, V domains shown) Valpha: RKEVEQDPGPFNVPEGATVAFNCTYSNSASQSFFWYRQDCRKEPKLLMSVYSSGNEDGRFTAQLNRASQYISLLIRDSKLSDSATYLCVVATYSGGGADGLTFGKGTHLIIQP Vbeta: DAGITQSPRYKITETGRQVTLMCHQTWSHSYMFWYRQDLGHGLRLIYYSAAADITDKGEVPDGYVVSRSKTENFPLTLESATRSQTSVYFCASSSGNPSTDTQYFGPGTRLTVL | recognises | recognises | 0.0094 ng/mL and 0.028 ng/mL | 
w678 clonotype 3 (TCR) alpha TRAV12-1*01 TRAJ45*01 CDR3: CVVATYSGGGADGLTF beta TRBV19*01 TRBJ2-1*01 CDR3: CASSIIAGSSYNEQFF |  |  | 0.022 ng/mL and 0.013 ng/mL | EC50 of tLTAg plasmid DNA [5]: 1000 ng/mL
w876 clonotype 1 (TCR) alpha TRAV12-1*01 TRAJ45*01 CDR3: CVVGEYSGGGADGLTF beta TRBV28*01 TRBJ2-1*01 CDR3: CAIRAGASYNEQFF |  |  | 0.31 ng/mL | EC50 of tLTAg plasmid DNA [5]: 5600 ng/mL
w876 clonotype 13 (TCR) alpha TRAV12-1*01 TRAJ45*01 CDR3: CVVTDTSGGGADGLTF beta TRBV7-2*04 TRBJ2-3*01 CDR3: CASSLAGLAGTDTQYF |  |  |  | EC50 of tLTAg plasmid DNA [5]: 3900 ng/mL
w876 clonotype 9 (TCR) alpha TRAV12-1*01 TRAJ43*01 CDR3: CVGNNNDMRF beta TRBV10-3*01 TRBJ2-2*01 CDR3: CAISARDQNTGELFF | recognises | recognises | 0.12 ng/mL and 0.24 ng/mL | 
w876 clonotype 29 (TCR) alpha TRAV12-1*01 TRAJ3*01 CDR3: CVVPLYSSASKIIF beta TRBV10-2*01 TRBJ2-2*01 CDR3: CASSVLNTGELFF |  |  | 0.12 ng/mL and 0.16 ng/mL | EC50 of tLTAg plasmid DNA [5]: 3300 ng/mL
w683 clonotype 1 (TCR) alpha TRAV12-1*01 TRAJ45*01 CDR3: CVVALYSGGGADGLTF beta TRBV6-5*01 TRBJ1-2*01 CDR3: CASRSQNYYGYTF | recognises | recognises |  | 
w876 clonotype 17 (TCR) alpha TRAV12-1*01 TRAJ37*02 CDR3: CVVYGSSNTGKLIF beta TRBV7-2*04 TRBJ2-1*01 CDR3: CASSLAGLANNEQFF | recognises |  |  | 
w876 clonotype 21 (TCR) alpha TRAV3*01 TRAJ40*01 CDR3: CAVRDNSGTYKYIF beta TRBV13*02 TRBJ2-1*01 CDR3: CASSSGTSGGLTYNEQFF | recognises |  |  | 
w876 clonotype 20 (TCR) alpha TRAV10*01 TRAJ45*01 CDR3: CVVSAGINGADGLTF beta TRBV12-4*01 TRBJ2-1*01 CDR3: CASSPWDEQFF | recognises |  |  | 
w876 clonotype 27 (TCR) alpha TRAV3*01 TRAJ11*01 CDR3: CALTGYSTLTF beta TRBV19*01 TRBJ2-1*01 CDR3: CASRSQLAVLNEQFF | recognises |  |  | 
w678 clonotype 5 (TCR) alpha TRAV38-1*01 TRAJ43*01 CDR3: CAFRVSHDMRF beta TRBV10-2*01 TRBJ2-3*01 CDR3: CASSSGNPSTDTQYF | recognises |  | 0.11 ng/mL and 0.054 ng/mL | 
w876 clonotype 3 (TCR) alpha TRAV19*01 TRAJ40*01 CDR3: CALGGGTFTSGTYKYIF beta TRBV9*02 TRBJ2-2*01 CDR3: CASSVEDYTGELFF |  |  | 0.12 ng/mL | EC50 of tLTAg plasmid DNA [5]: 11000 ng/mL
w876 clonotype 19 (TCR) alpha TRAV12-1*01 TRAJ45*01 CDR3: CVVYTGYSGGGADGLTF beta TRBV10-2*01 TRBJ2-2*01 CDR3: CASSGQNTGELFF | recognises | recognises | 0.92 ng/mL | 
w678 clonotype 2 (TCR) alpha TRAV38-1*01 TRAJ43*01 CDR3: CAFRVSHDMRF beta TRBV19*01 TRBJ2-1*01 CDR3: CASSIIAGSSYNEQFF | recognises |  | 0.017 ng/mL and 0.012 ng/mL | 

Molecule | binding result [2] | binding result [3] | EC50 of peptide [4] | further results
X389-8 (TCR, V domains shown) Valpha: RKEVEQDPGPFNVPEGATVAFNCTYSNSASQSFFWYRQDCRKEPKLLMSVYSSGNEDGRFTAQLNRASQYISLLIRDSKLSDSATYLCVVTGTGGFKTIFGAGTRLFVKA Vbeta: GEEVAQTPKHLVRGEGQKAKLYCAPIKGHSYVFWYQQVLKNEFKFLISFQNENVFDETGMPKERFSAKCLPNSPCSLEIQATKLEDSAVYFCASSSMSIAAGNTGELFFGEGSRLTVL |  |  |  | binding result [1]: recognises
w876 clonotype 26 (TCR) alpha TRAV12-1*01 TRAJ45*01 CDR3: CVVYTGYSGGGADGLTF beta TRBV13*02 TRBJ2-1*01 CDR3: CASSSGTSGGLNYNEQFF | recognises |  |  | 
w830 clonotype 2 (TCR) alpha TRAV38-1*01 TRAJ27*01 CDR3: CALTSGSRLTF beta TRBV19*01 TRBJ1-5*01 CDR3: CASSIMLYSNQPQHF |  |  |  | EC50 of tLTAg plasmid DNA [5]: 140000 ng/mL
w876 clonotype 10 (TCR) alpha TRAV12-1*01 TRAJ37*02 CDR3: CVVYGSSNTGKLIF beta TRBV10-3*01 TRBJ2-2*01 CDR3: CAIRRQDQNTGELFF | recognises | recognises | 0.7 ng/mL | 
w876 clonotype 6 (TCR) alpha TRAV12-1*01 TRAJ3*01 CDR3: CVVPLYSSASKIIF beta TRBV6-1*01 TRBJ1-1*01 CDR3: CASSDTPDLNTEAFF | recognises | recognises | 0.015 ng/mL and 0.035 ng/mL | 
w876 clonotype 4 (TCR) alpha TRAV12-1*01 TRAJ45*01 CDR3: CVVYTGYSGGGADGLTF beta TRBV10-2*01 TRBJ2-2*01 CDR3: CASSVLNTGELFF |  |  | 0.31 ng/mL | EC50 of tLTAg plasmid DNA [5]: 14000 ng/mL
w678 clonotype 1 (TCR) alpha TRAV12-1*01 TRAJ43*01 CDR3: CVLNNNDMRF beta TRBV10-3*01 TRBJ2-2*01 CDR3: CAIRQFDANTGELFF |  |  | 0.43 ng/mL and 0.5 ng/mL and 0.47 ng/mL | EC50 of tLTAg plasmid DNA [5]: 320 ng/mL
w876 clonotype 11 (TCR) alpha TRAV12-1*01 TRAJ45*01 CDR3: CVVYTGYSGGGADGLTF beta TRBV10-3*01 TRBJ2-2*01 CDR3: CAIHEGDSNTGELFF | recognises | recognises |  | 
w830 clonotype 5 (TCR) alpha TRAV12-1*01 TRAJ43*01 CDR3: CVVNANDMRF beta TRBV10-3*01 TRBJ2-2*01 CDR3: CAIRARDQNTGELFF | recognises | recognises |  | 
w876 clonotype 8 (TCR) alpha TRAV12-1*01 TRAJ3*01 CDR3: CVVYASKIIF beta TRBV6-1*01 TRBJ1-1*01 CDR3: CASSDTPDLNTEAFF |  |  |  | EC50 of tLTAg plasmid DNA [5]: 4200 ng/mL
w830 clonotype 3 (TCR) alpha TRAV38-1*01 TRAJ34*01 CDR3: CAYPSTDKLIF beta TRBV19*01 TRBJ1-5*01 CDR3: CASSILGASNQPQHF |  |  |  | EC50 of tLTAg plasmid DNA [5]: 270000 ng/mL
w830 clonotype 4 (TCR) alpha TRAV12-1*01 TRAJ43*01 CDR3: CVLNNNDMRF beta TRBV19*01 TRBJ1-5*01 CDR3: CASSILGASNQPQHF | recognises | recognises | 1.1 ng/mL | 
w876 clonotype 12 (TCR) alpha TRAV3*01 TRAJ40*01 CDR3: CAVRDNSGTYKYIF beta TRBV7-2*04 TRBJ2-3*01 CDR3: CASSLAGLAGTDTQYF | recognises |  |  | 
w876 clonotype 18 (TCR) alpha TRAV14 TRAJ13*01 CDR3: CAMREAQSGGYQKVTF beta TRBV12-4*01 TRBJ2-3*01 CDR3: CASSFGSGTKDTQYF | recognises | recognises |  | 
w876 clonotype 2 (TCR) alpha TRAV12-1*01 TRAJ45*01 CDR3: CVVTEYSGGGADGLTF beta TRBV10-3*01 TRBJ2-2*01 CDR3: CASRGQNTGELFF | recognises | recognises | 1.2 ng/mL | 
w876 clonotype 16 (TCR) alpha TRAV38-1*01 TRAJ23*01 CDR3: CAYNQGGKLIF beta TRBV19*01 TRBJ2-1*01 CDR3: CASSTLSGTHNEQFF | recognises | recognises | 0.12 ng/mL | 
w876 clonotype 14 (TCR) alpha TRAV12-1*01 TRAJ27*01 CDR3: CVVPSAGKSTF beta TRBV2*03 TRBJ2-5*01 CDR3: CASSEFAGQETQYF |  |  |  | EC50 of tLTAg plasmid DNA [5]: 5400 ng/mL
w683 clonotype 2 (TCR) alpha TRAV12-1*01 TRAJ43*01 CDR3: CVLNNNDMRF beta TRBV6-5*01 TRBJ1-2*01 CDR3: CASRSQNYYGYTF | recognises | recognises | 0.21 ng/mL | 
